Test results published in patent US20230340111A1 (published 2023).

Assays:
[1] = molecular target: T1, human folate receptor beta (FOLR2), extracellular domain, recombinant (human, UniProt P14207 17-228, limits assumed); experiment: ELISA, coated recombinant protein, HA-tagged VHH in bacterial extract
T1 construct: extracellular domain; Bought protein; also called human FOLR2
Description: (§1) The day before, 0.1 µg recombinant protein at a concentration of 1 µg/mL in 100 mM NaHCO3, pH 8.2 was coated in a 96-well ELISA plate (Nunc MaxiSorp). Per VHH clone also a blank coated well was foreseen (only buffer). The wells were overcoated with protein-free T20 (PBS) blocking buffer (Pierce). After washing with PBS, pH7.4, 0.05% Tween, VHH-containing bacterial extract was added to every well. Binding of HA-tagged VHHs was detected by using mouse anti-HA.11 epitope tag (clone 16B12, Biolegend) as the primary Ab and goat anti-mouse IgG (whole molecule) alkaline phosphatase conjugate (Sigma-Aldrich) as the secondary Ab, with thorough washing with PBS, pH 7.4, 0.05% Tween in between. Signals were developed using phosphatase substrate (Sigma-Aldrich) in AP blot buffer (100 mM NaCl, 50 mM MgCl2, 100 mM Tris, pH 9.5). The absorbance was determined at 405 nm using an absorbance microplate reader (Molecular Devices). Per clone the ratio was determined between the absorbance in the antigen-coated well versus the well without antigen.

[2] = molecular target: T2, murine FOLR1, extracellular domain, recombinant (murine, UniProt P35846 25-232); experiment: as above
T2 construct: extracellular domain; Bought protein; also called mouse FOLR1
T2 sequence (P35846 25-232 limits assumed): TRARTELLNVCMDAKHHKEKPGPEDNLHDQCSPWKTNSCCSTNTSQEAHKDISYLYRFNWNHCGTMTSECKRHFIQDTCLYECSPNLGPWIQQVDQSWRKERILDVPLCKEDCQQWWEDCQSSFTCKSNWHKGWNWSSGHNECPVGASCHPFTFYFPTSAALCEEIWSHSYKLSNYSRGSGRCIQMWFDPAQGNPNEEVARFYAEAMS
Description: as §1

[3] = molecular target: T3, human folate receptor gamma (FOLR3), recombinant (human, UniProt P41439 23-245, limits assumed); experiment: as above
T3 construct: extracellular domain; Bought protein; also called human FOLR3
T3 sequence (P41439 23-245 limits assumed): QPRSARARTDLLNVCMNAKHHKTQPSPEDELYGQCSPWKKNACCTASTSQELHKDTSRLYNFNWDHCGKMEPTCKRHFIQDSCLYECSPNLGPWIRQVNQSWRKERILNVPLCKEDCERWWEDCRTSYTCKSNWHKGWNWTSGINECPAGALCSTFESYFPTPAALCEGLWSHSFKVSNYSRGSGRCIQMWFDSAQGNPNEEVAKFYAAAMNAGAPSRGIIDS
Description: as §1

[4] = molecular target: human FOLR1 recombinant protein (extracellular domain of human folate receptor alpha) (human) (UniProt P15328); experiment: ELISA; coated recombinant protein, HA-tagged VHH in bacterial extract, anti-HA detection; A405 antigen well / blank well
Chain of human FOLR1 recombinant protein (extracellular domain of human folate receptor alpha) (human) (P15328 25-233): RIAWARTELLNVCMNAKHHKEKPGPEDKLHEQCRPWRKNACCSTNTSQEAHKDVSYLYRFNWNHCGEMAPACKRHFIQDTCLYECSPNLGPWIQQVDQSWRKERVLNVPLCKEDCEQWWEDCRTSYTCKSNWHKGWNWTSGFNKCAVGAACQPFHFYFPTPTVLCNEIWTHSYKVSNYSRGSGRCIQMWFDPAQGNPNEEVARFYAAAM

[5] = molecular target: T1, human folate receptor beta (FOLR2), …; experiment: as above
Description: as §1

[6] = molecular target: T2, murine FOLR1, extracellular domain, …; experiment: as above
Description: as §1

[7] = molecular target: T3, human folate receptor gamma (FOLR3), …; experiment: as above
Description: as §1

[8] = molecular target: T4, human FOLR1 expressed on SKOV-3 ovarian carcinoma cells (human, UniProt P15328 25-234); experiment: saturation binding of 131I-labelled His6-tagged VHH on SKOV-3 cells (0-300 nM); non-specific binding by 100-fold unlabelled VHH
T4 construct: Naturally expressed receptor on SKOV-3 cells; also called human FOLR1pos SKOV-3 cancer cells; human FOLR1-expressing cell line SKOV-3
T4 sequence (P15328 25-234 limits assumed): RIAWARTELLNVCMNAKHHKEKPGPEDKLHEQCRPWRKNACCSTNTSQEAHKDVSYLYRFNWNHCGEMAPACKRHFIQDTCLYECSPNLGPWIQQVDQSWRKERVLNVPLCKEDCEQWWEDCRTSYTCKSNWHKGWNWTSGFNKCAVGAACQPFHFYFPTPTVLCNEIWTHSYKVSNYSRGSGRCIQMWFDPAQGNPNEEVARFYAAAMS
Description: In a first part, their in vitro behaviour was assessed by means of investigating their cellular binding and retention over time. The binding potential of the resulting radioconjugates was assessed to confirm that this was not affected by the introduction of ¹³¹I-SGMIB into the amino acid sequence of the different VHHs. To this, human FOLR1^pos SKOV-3 cancer cells were incubated with serial dilutions with concentrations ranging from 0 to 300 nM of the different ¹³¹I-labelled, His₆ tagged VHHs. A 100-fold excess of the corresponding unlabeled VHH was added in parallel to saturate the human FOLR1 receptors expressed on cancer cells, to assess non-specific binding.

[9] = molecular target: T4, human FOLR1 expressed on SKOV-3 ovarian …; experiment: cellular retention on SKOV-3 cells: 10 nM 131I-VHH 1 h at 4 C, then up to 24 h at 37 C; membrane-bound plus internalized fraction
Description: The in vitro cellular retention of the different His₆- and untagged ¹³¹I-labeled VHHs was assessed on the same cancer cells. In this particular case, human FOLR1^pos SKOV-3 cancer cells were incubated with 10 nM ¹³¹I-labelled VHHs for 1h at 4° C., after which the unbound fraction was collected. A 100-fold excess of the corresponding unlabeled VHH to assess non-specific binding. Next, the cells were incubated with fresh medium up to 24 h at 37° C., after which the dissociated fraction was collected. Afterwards, the cells were washed with 0.05 M glycine pH 2.8 to collect the membrane-bound fraction. Finally, cells were solubilized with 1 M NaOH at room temperature to collect the internalized fraction. The sum of the membrane-bound and internalized fractions corresponds to the total cell-associated fraction.

[10] = molecular target: T5, human FOLR1 recombinant protein (extracellular domain of human folate receptor alpha) (human, UniProt P15328 25-233); experiment: SPR (Biacore T200), human FOLR1 immobilized on CM5, His6-tagged VHH as analyte, 1:1 fit
T5 construct: Bought recombinant protein (Sino Biological); also called hFOLR1; FR-alpha
T5 sequence (P15328 25-233): as the sequence (P15328 25-233) above
Description: The kinetic parameters of antigen binding by purified VHHs were determined via surface plasmon resonance with a Biacore T200 instrument (GE Healthcare). The human FOLR1 recombinant protein (Sino Biological) was immobilized in 10 mM sodium acetate, pH 5.5 on a CM5 chip (GE Healthcare) via amine coupling chemistry to 500 RU. His₆-tagged VHHs were analyzed in a twofold serial dilution in HBS (125 nM-0.488 nM for VHHs A4 and A5; 10 nM-0.039 nM for VHHs A1, A2 and A3) with an analyte flow rate of 30 µl/min. The association phase took 180 s (A4-A5) or 450 s (A1-A3) and the dissociation phase 600 s (A4-A5) or 900 s (A1-A3). Regeneration was done by a single injection of 50 mM glycine-HCl, pH 2.5, 2 M MgCl₂ for 30 s at 30 µl/min, followed by 120 s stabilization. Binding curves were fitted using a ‘1:1 (antigen:analyte)’ binding model in Biacore T200 evaluation software.

[11] = molecular target: T5, human FOLR1 recombinant protein …; experiment: SPR dual injection on immobilized human FOLR1, 250 nM; competitor (1st VHH, saturating) A1; by the legend the value is of the 2nd VHH
Description: (§2) Competitive binding characteristics of His₆-tagged VHHs were determined via surface plasmon resonance with a Biacore T200 instrument (GE Healthcare). Immobilization of human FOLR1 recombinant protein (Sino Biological) and regeneration were performed as described below for kinetic measurements.
(§3) Table 8: Side-by-side comparison of His₆-tagged VHHs A1, A2, A3, A4, A5 for binding to human FOLR1 to identify competitive binding characteristics. Binding was measured in surface plasmon resonance with immobilized human FOLR1 recombinant protein as the ligand. After saturation of the ligand with VHH 1 an equimolar mixture of VHH 1 and VHH 2 was injected. Percentages express the loss in response level of VHH 2, relative to the response when VHH 2 was injected alone.

[12] = molecular target: T5, human FOLR1 recombinant protein …; experiment: SPR dual injection on immobilized human FOLR1, 250 nM; competitor (1st VHH, saturating) A4; by the legend the value is of the 2nd VHH
Description: as §2, §3

[13] = molecular target: T5, human FOLR1 recombinant protein …; experiment: SPR dual injection on immobilized human FOLR1, 250 nM; competitor (1st VHH, saturating) A2; by the legend the value is of the 2nd VHH
Description: as §2, §3

[14] = molecular target: T5, human FOLR1 recombinant protein …; experiment: SPR dual injection on immobilized human FOLR1, 250 nM; competitor (1st VHH, saturating) A3; by the legend the value is of the 2nd VHH
Description: as §2, §3

T1 sequence (P14207 17-228 limits assumed): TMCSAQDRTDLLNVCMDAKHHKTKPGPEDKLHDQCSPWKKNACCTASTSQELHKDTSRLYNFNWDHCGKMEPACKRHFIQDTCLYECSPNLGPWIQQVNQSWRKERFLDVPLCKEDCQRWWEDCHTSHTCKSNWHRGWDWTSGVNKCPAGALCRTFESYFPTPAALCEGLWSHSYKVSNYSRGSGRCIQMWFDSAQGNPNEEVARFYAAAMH

B1: HA-tagged variant of VHH A4 (VHH)
VHH: QVQLQESGGGLARAGGSLRLSCAASGRAFSSTYAMGWFRQAPGKEREFVADINWSEGSPMYIDSVKDRFTISRDNARNSLYLQMNSLKSEDTAVYYCAARRFGQGYEYWGQGTQVTVSS
notes: Used as VHH-containing bacterial (periplasmic) extract in ELISA; also called A4 HA-tag
- binding result [1]: no binding
- binding result [2]: no binding
- binding result [3]: no binding
- signal-to-background ratio [4]: > 20
- signal-to-background ratio [5]: ~1
- signal-to-background ratio [6]: ~1
- signal-to-background ratio [7]: ~1

B2: 131I-labeled His6-tagged VHH A4 (VHH)
VHH: DVQLVESGGGLARAGGSLRLSCAASGRAFSSTYAMGWFRQAPGKEREFVADINWSEGSPMYIDSVKDRFTISRDNARNSLYLQMNSLKSEDTAVYYCAARRFGQGYEYWGQGTQVTVSS
modifications: [131I]SGMIB conjugated to lysine side-chain amine groups
- EC50 [8]: 5.8 nM
- cell-associated fraction of initial bound activity after 24 h [9]: 10%

B3: HA-tagged variant of VHH A1 (VHH)
VHH: QVQLQESGGGLVQPGGSLRLSCAASESIFSRNHMSWYRQAPGKQRELAAIITSDGNTNYPDSVKGRFTISRDNAKNTVYLQMNSLKPEDTAVYYCNTFGRSVAGFYDYWGQGTQVTVSS
notes: Used as VHH-containing bacterial (periplasmic) extract in ELISA; also called A1 HA-tag
- binding result [1]: no binding
- binding result [2]: no binding
- binding result [3]: no binding
- signal-to-background ratio [4]: > 20
- signal-to-background ratio [5]: ~1
- signal-to-background ratio [6]: ~1
- signal-to-background ratio [7]: ~1

B4: 131I-labeled His6-tagged VHH A1 (VHH)
VHH: DVQLVESGGGLVQPGGSLRLSCAASESIFSRNHMSWYRQAPGKQRELAAIITSDGNTNYPDSVKGRFTISRDNAKNTVYLQMNSLKPEDTAVYYCNTFGRSVAGFYDYWGQGTQVTVSS
modifications: [131I]SGMIB conjugated to lysine side-chain amine groups
- EC50 [8]: 0.7 nM
- cell-associated fraction of initial bound activity after 24 h [9]: ~40%

B5: HA-tagged variant of VHH A3 (VHH)
VHH: QVQLQESGGGLVQAGGSLRLSCGVSGNMFSMNLMGWYRQPPGKERDWVAVITKDGSTNYADSVKGRFTISRDNAKNTVSLQMNSLKPEDTAVYYCNVQDGSGWIRAWGWDWGQGTQVTVSS
notes: Used as VHH-containing bacterial (periplasmic) extract in ELISA; also called A3 HA-tag
- binding result [1]: no binding
- binding result [2]: no binding
- binding result [3]: no binding
- signal-to-background ratio [4]: > 20
- signal-to-background ratio [5]: ~1
- signal-to-background ratio [6]: ~1
- signal-to-background ratio [7]: ~1

B6: 131I-labeled His6-tagged VHH A3 (VHH)
VHH: DVQLVESGGGLVQAGGSLRLSCGVSGNMFSMNLMGWYRQPPGKERDWVAVITKDGSTNYADSVKGRFTISRDNAKNTVSLQMNSLKPEDTAVYYCNVQDGSGWIRAWGWDWGQGTQVTVSS
modifications: [131I]SGMIB conjugated to lysine side-chain amine groups
- EC50 [8]: 4.5 nM
- cell-associated fraction of initial bound activity after 24 h [9]: 20%

B7: HA-tagged variant of VHH A5 (VHH)
VHH: QVQLQESGGGLVQAGGSLRLSCGVSGNIFSMNLMGWYRQPPGKEREWVALITKDGSTNYEDSVKGRFTISRDNAKNTVSLQMNSLKPEDTAVYYCNAQDGSGWIRAWGWDWGQGTQVTVSS
notes: Used as VHH-containing bacterial (periplasmic) extract in ELISA; also called A5 HA-tag
- binding result [1]: no binding
- binding result [2]: no binding
- binding result [3]: no binding
- signal-to-background ratio [4]: > 20
- signal-to-background ratio [5]: ~1
- signal-to-background ratio [6]: ~1
- signal-to-background ratio [7]: ~1

B8: His6-tagged variant of VHH A5 (VHH)
VHH: DVQLVESGGGLVQAGGSLRLSCGVSGNIFSMNLMGWYRQPPGKEREWVALITKDGSTNYEDSVKGRFTISRDNAKNTVSLQMNSLKPEDTAVYYCNAQDGSGWIRAWGWDWGQGTQVTVSS
notes: Purified, unlabelled; also called A5 His6-tag
- Kd [10]: 14 nM
- koff [10]: 0.018 s⁻¹
- kon [10]: 1.3e+06 M⁻¹ s⁻¹
- loss in response level of VHH 2 relative to VHH 2 injected alone [11]: -96%
- loss in response level of VHH 2 relative to VHH 2 injected alone [12]: -98%
- loss in response level of VHH 2 relative to VHH 2 injected alone [13]: -99%
- loss in response level of VHH 2 relative to VHH 2 injected alone [14]: -100%

B9: 131I-labeled His6-tagged VHH A2 (VHH)
VHH: DVQLVESGGGLVQAGGSLRLSCAADEMKFSNYDLAWYRRAPGKQRELAAIITSGGSTNYPDSVKGRFTISRDNAKNTVYLEMNSLKPEDTAVYYCNALRPWPQFSDYWGQGTQVTVSS
modifications: [131I]SGMIB conjugated to lysine side-chain amine groups
- EC50 [8]: 1.1 nM
- cell-associated fraction of initial bound activity after 24 h [9]: ~60%
